Experimental findings from patent publication US20240002795A1 (published 2024) are described below.

What all share (experiment): activation reporter or marker
The target in experiment [1] is T1, RET M918T peptide on HLA-DPA1*01:03 / HLA-DPB1*04:01 (human).
T1 peptide: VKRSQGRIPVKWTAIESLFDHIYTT

The target of experiment [2] is T2, RET wild type peptide on HLA-DPA1*01:03 / HLA-DPB1*04:01 (human).
T2 peptide: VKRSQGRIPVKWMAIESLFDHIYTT

In experiment [3] the target is T3, RET M918T peptide on HLA-DPA1*01:03 / HLA-DPB1*04:02 (human).
T3 peptide: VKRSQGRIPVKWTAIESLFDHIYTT

For experiment [4], the target named is T4, RET wild type peptide on HLA-DPA1*01:03 / HLA-DPB1*04:02 (human).
T4 peptide: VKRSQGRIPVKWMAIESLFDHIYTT

B1: TCR-ID-3 (TCR, V domains shown)
Valpha: DQQVKQNSPSLSVQEGRISILNCDYTNSMFDYFLWYKKYPAEGPTFLISISSIKDKNEDGRFTVFLNKSAKHLSLHIVPSQPGDSAVYFCAASGHGGSQGNLIFGKGTKLSVKP
Vbeta: GAGVSQSPRYKVAKRGQDVALRCDPISGHVSLFWYQQALGQGPEFLTYFQNEAQLDKSGLPSDRFFAERPEGSVSTLKIQRTQQEDSAVYLCASSLRFLGQGSYEQYFGPGTRLTVT
For the molecule B1, the binding result in experiment [1] is listed as “recognises”; in experiment [2] it was “no recognition”; in experiment [3], “recognises”.

B2: TCR-ID-2 (TCR, V domains shown)
Valpha: AQKITQTQPGMFVQEKEAVTLDCTYDTSDQSYGLFWYKQPSSGEMIFLIYQGSYDEQNATEGRYSLNFQKARKSANLVISASQLGDSAMYFCAMREGDGDDMRFGAGTRLTVKP
Vbeta: EPEVTQTPSHQVTQMGQEVILRCVPISNHLYFYWYRQILGQKVEFLVSFYNNEISEKSEIFDDQFSVERPDGSNFTLKIRSTKLEDSAMYFCASSSQIQTVMNTEAFFGQGTRLTVV
B2: the binding result in experiment [1] was “recognises”; in experiment [2] it was “no recognition”; in experiment [3] it was “recognises”; in experiment [4] it was “no recognition”.

B3: TCR-ID-1 (TCR, V domains shown)
Valpha: GNSVTQMEGPVTLSEEAFLTINCTYTATGYPSLFWYVQYPGEGLQLLLKATKADDKGSNKGFEATYRKETTSFHLEKGSVQVSDSAVYFCALSENAGNQFYFGTGTSLTVIP
Vbeta: NAGVTQTPKFQVLKTGQSMTLQCAQDMNHEYMSWYRQDPGMGLRLIHYSVGAGITDQGEVPNGYNVSRSTTEDFPLRLLSAAPSQTSVYFCASSRGNTQYFGPGTRLTVL
With B3, the binding result is listed as “recognises” in experiment [1], “no recognition” in experiment [2], “recognises” in experiment [3] and “no recognition” in experiment [4].
